This data set deals with the molecule itself. Description: crystal structure.

B1: MS2 coat protein Asn87Ser mutant (natural protein, bacteriophage MS2)
chain: ASNFTQFVLVDNGGTGDVTVAPSNFANGVAEWISSNSRSQAYKVTCSVRQSSAQNRKYTIKVEVPKVATQTVGGVELPVAAWRSYLSMELTIPIFATNSDCELIVKAMQGLLKDGNPIPSAIAANSGIY
For B1, the binding result is on record as “binds”.

B2: MS2 coat protein Asn87Ser, Glu89Lys double mutant (natural protein, bacteriophage MS2)
chain: ASNFTQFVLVDNGGTGDVTVAPSNFANGVAEWISSNSRSQAYKVTCSVRQSSAQNRKYTIKVEVPKVATQTVGGVELPVAAWRSYLSMKLTIPIFATNSDCELIVKAMQGLLKDGNPIPSAIAANSGIY
As to B2, the binding result was “binds”.

The values are drawn from publication PMC7612262 (Structure (London, England : 1993), 2006).
